System: MS2 coat protein
Experiment: apparent KD of MS2 coat protein; designed switch direction (-1 OFF switch, 1 ON switch): 1; higher = weaker reporter binding
How it was run: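 Three titration conditions were used: no input, 200 uM small-molecule ligand, and an oligonucleotide input. In each, SNAP-549-labelled MS2 coat protein was raised from 0.7 or 1.5 nM, doubling, to 3 µM over designed RNA switches transcribed on Illumina chips by stalled E. coli RNA polymerase. Curve fits of normalised cluster fluorescence gave values whose per-design median over clusters is the apparent KD.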

[1] = input ligand: microRNA oligo, concentration not stated
[2] = Eterna round: R95, input ligand: FMN 200 uM
[3] = Eterna round: R95, input ligand: microRNA oligo, concentration not stated
[4] = Eterna round: R95, input ligand: none

Sequence | apparent KD of MS2 coat protein (input ligand: FMN 200 uM) | apparent KD of MS2 coat protein [1] | apparent KD of MS2 coat protein (input ligand: none) | apparent KD of MS2 coat protein [2] | apparent KD of MS2 coat protein [3] | apparent KD of MS2 coat protein [4]
GGUGGGUUACUACCAACACAUGAGGAUCACCCAUGUUUUGGGAAGGAUAUGGUACCUAUUUGGUACCAGAAGGUCCGGUUGGUG [salish99_SSNG3_r04_704] (Eterna round: R96, puzzle: Same State NG 3) | 0.0478 µM | 0.1 µM | 0.1 µM |  |  | 
AACAAUCUAUCUGAGGAUAUCAUGAAAUAAACAUGAGGAUCACCCAUGUGCAGGAAAACUGCAUAUGAGAAGGUAGAUAGAUUGA [salish99_ss2_r3_050] (puzzle: Same State 2) |  |  |  | 0.176 µM | 0.14 µM | 0.218 µM
AAACAUGAGCGAGGAUAUACGGAGGAUCACCCUGUAGAAGGCGCAUGUAAAACAACAUGAGGAUCACCCAUGUCAUGUACAUGA (Eterna round: R96, puzzle: Same State NG 1) | 0.0248 µM | 0.0234 µM | 0.0336 µM |  |  | 
UUAAUGAAGUAAGGAUAUACAUGAGGAUUUCUCGUAGAAGGUACUAUACAUGAGGAUCACCCAUGUGCCGGUCCGUAGACUGGA [JL SSNG1 1.05] (Eterna round: R96, puzzle: Same State NG 1) | 0.342 µM | 0.297 µM | 0.607 µM |  |  | 
GGUGCCAAAUAAGCCUACAUGAGGAUCACCCAUGUAUGUAGGCAGGAUAUCGUAUGCAAAGCAUACGAGAAGGGCCUAGGCACC [Mat - Same State NG 3 - JL Mod - D63] (Eterna round: R96, puzzle: Same State NG 3) | 0.0188 µM | 0.0237 µM | 0.0413 µM |  |  | 
CCGAUUUAUGGAGGAUAUGGAGCCUUAUUGGCUCCAGAAGGCUAAUAACAUGAGGAUCACCCAUGUCGGCGGUCUAAUGACCGA [Eli NG1ss - 52] (Eterna round: R96, puzzle: Same State NG 1) | 0.0392 µM | 0.0475 µM | 0.0916 µM |  |  | 
UUCCCAUCGGGAGGAUAUGGUGCCUUAUUGGUGCUAGAAGGUCCAACAUGAGGAUCACCCAUGUGGGAGUGGUCUAAUGACCUC [SS NG10LRO06] (Eterna round: R96, puzzle: Same State NG 1) | 0.338 µM | 0.204 µM | 0.355 µM |  |  | 
GUGAAGAAUUAAGGAUAUCGAGUCAAGAUGUUAAACAUGAGGAUCACCCAUGUGGGUUGCGGUAUCGAGAAGGUAAAUUACAAG [salish99_SSNG2_r04_501] (Eterna round: R96, puzzle: Same State NG 2) | 0.0267 µM | 0.0259 µM | 0.0314 µM |  |  | 
CGGCGCUGUCGAGAGGAUAUGCGGUGAUGGACAUGAGGAUCACCCAUGUUAGCGAUAGCAUUACGGUAGAAGGCUCUAUAGUUGC [Soteed Omei mod 9] (puzzle: Same State 2) |  |  |  |  | 0.248 µM | 
AUGCCAAAUGGAGGAUAUGGAGCCUUAUUGGCUCCAGAAGGUCAGACAUGAGGAUCACCCAUGUGGCAGUGGUCUAAUGACCAC [Eli NG1ss - 39] (Eterna round: R96, puzzle: Same State NG 1) | 0.126 µM | 0.392 µM | 0.638 µM |  |  | 
AGGCUCAGACGAGGAUAUGGUCAUGGCGCUUCGGCGCAUACAUGAGGAUCACCCAUGUAGGGUGAUCAGAAGGUGUCUGAGCCA [SSNG2/9-B1] (Eterna round: R96, puzzle: Same State NG 2) | 0.171 µM | 0.72 µM | 0.892 µM |  |  | 
ACAUGAAAUUGAGGAUAUUUUGUACCUACAUGUGACAUGAGGAUCACCCAUGUGGUAAGUAUAAGAGAGAAGGCAAAGAUAUGU [Equivalence 6 - Jieux - Same State NG 2] (Eterna round: R96, puzzle: Same State NG 2) | 0.03 µM | 0.0292 µM | 0.0451 µM |  |  | 
CAAGAAAACGCAGGAUAUACCCGAACAACCCGGGUAGAAGGGUGACACAUGAGGAUCACCCAUGUACAUGGCAUUAGCCAUGGA [Esusxebeis] (Eterna round: R96, puzzle: Same State NG 1) | 1.02 µM | 0.262 µM | 0.43 µM |  |  | 
AAAAGAAACACAGGAUAUACCGCAAUUAACACGGUAGAAGGGUGGGACAUGAGGAUCACCCAUGUGACCUGAACACCAGGUCGC [Enrien] (Eterna round: R96, puzzle: Same State NG 1) | 0.369 µM | 0.0179 µM | 0.105 µM |  |  | 
UGAAUGAUGUUAGGAUAUACAUGAGGAAUCCUCGUAGAAGGAACAUGACAUGAGGAUCACCCAUGUAGCGCUCCGUAGAGCGCA [JL SSNG1 1.19] (Eterna round: R96, puzzle: Same State NG 1) | 0.21 µM | 0.0304 µM | 0.146 µM |  |  | 
GGAGGAUUCGCAGGAUAUUCCUGAACACUGUAGGAAGAAGGGUGACGUAUCAGCACCAAGUGACAUGAGGAUCACCCAUGUUAA [Eternabot solution 24] (Eterna round: R96, puzzle: Same State NG 1) | 0.137 µM | 0.0937 µM | 0.114 µM |  |  | 

Sequence | apparent KD of MS2 coat protein (input ligand: FMN 200 uM) | apparent KD of MS2 coat protein [1] | apparent KD of MS2 coat protein (input ligand: none) | apparent KD of MS2 coat protein [2] | apparent KD of MS2 coat protein [3] | apparent KD of MS2 coat protein [4]
UGUUGUAUUACAGGAUAUCUAUUAUAUUUAUUUAGAGAAGGGUAUUCACAUGAGGAUCACCCAUGUAUAUACGAGGAAGUUGUG [JMF's solution 15] (Eterna round: R96, puzzle: Same State NG 1) |  | 0.0364 µM |  |  |  | 
GGAGCCAAGGCAGGAUAUUCAUUAUAAAUUACAUGAGGAUCACCCAUGUUGGCCAGAAGGCCAUGGGAGAAGGGCCAUGGCUCG [Xeonanis - 13 mod25] (Eterna round: R96, puzzle: Same State NG 2) | 0.0397 µM | 0.28 µM | 0.322 µM |  |  | 
UAUAAACAUGAGGAUCACCCAUGUAAUAAUAUGGGAGGAUAUCAGAUUUAAUUUAAUUUAUGAGAAGGCCUAAUAU [Mat - Same State 1 - Mod of Eli - D66] (puzzle: Same State 1) |  |  |  | 0.0343 µM | 0.491 µM | 0.825 µM
ACAUGAGAUUUAGGAUAUAUAGUACCUACAUGUGACAUGAGGAUCACCCAUGUGGUAAGUAUGACAUAGAAGGAAAAGAUAUGU [Equivalance 98 - Jieux - Same State NG 2] (Eterna round: R96, puzzle: Same State NG 2) |  | 0.0479 µM |  |  |  | 
GGGAGAGGCGCAGGAUAUGGUGAGGAUUACCCACUAGAAGGGUGCACAUGAGAAUCGAACAUGAGGAUCACCCAUGUUCUGAGC (Eterna round: R96, puzzle: Same State NG 1) | 0.189 µM | 0.187 µM | 0.23 µM |  |  | 
AAUCGUUUGAUAGGAUAUCGCUAUACAUGAGGAUCACCCAUGUUUACCACGCUGGUUUUUCAUACCGAGAAGGAUUCUGAUGAC [salish99_SSNG02_r04_002] (Eterna round: R96, puzzle: Same State NG 2) | 0.0262 µM | 0.0226 µM | 0.0298 µM |  |  | 
AUUAUAAAUGCAGGAUAUGAUUAACAUGAGGAUCACCCAUGUGGUGUUGUGAGUAAGGAGAGUGAUCAGAAGGGCAUUUUUUUU [JMF's solution 24] (Eterna round: R96, puzzle: Same State NG 2) | 0.62 µM | 0.343 µM | 0.555 µM |  |  | 
AAACGCAGCAUAUCGCUGCGACAUGAGGAUCACCCAUGUACACAGGAUAUCGCGGCAUACCGCCACGAGAAGGGUGAUCAAGAC [Vebixeriso] (Eterna round: R96, puzzle: Same State NG 3) | 0.676 µM | 0.0829 µM | 0.0452 µM |  |  | 
ACAUGAGAGCUAGGAUAUUUUGUACCUACAUGUGACAUGAGGAUCACCCAUGUGGUAAGUAUGAGAAAGAAGGAGCAGAUAUGU [Equivalance 53 - Jieux - Same State NG 2] (Eterna round: R96, puzzle: Same State NG 2) | 0.0149 µM | 0.0307 µM | 0.038 µM |  |  | 
GAUUAACAUGAGGAUCACCCAUGUGUGAAUAUGGGAGGAUAUACGUGGACCGUAGUCCGCGUAGAAGGCCUAAUUG [JL-ss1-3.20 janelle mod] (puzzle: Same State 1) |  |  |  |  | 0.223 µM | 
GAUAAACAUGAGGAUCACCCAUGUAAUAAUAUGGGAGGAUAUCAGAAUGUAUGUAUGUAAUGAGAAGGCCUAAUAG [Mat - Same State 1 - Mod of Eli - D72] (puzzle: Same State 1) |  |  |  | 0.0767 µM | 0.229 µM | 0.391 µM
AAAAUACAUGAGGAUCACCCAUGUCUAAAGAACGGAGGAUAUAGGCGUGCAAAACACGCACUAGAAGGCUGGGUGC [Eserus] (puzzle: Same State 1) |  |  |  | 0.144 µM | 0.0923 µM | 0.22 µM
UACCAACAUAUAGAACAAGCGUGCUCGUCACAUGAGGAUCACCCAUGUCUAAACGCUGUACCUACAUCCUCAGCGCC [Eddiso] (puzzle: Sensor for hsa-mir-208a) |  |  |  | 0.0233 µM | 0.0246 µM | 0.0228 µM
AGCUAGUACCGAGGAUAUACGUACAUGAGGAUCACCCAUGUAUACAUGAAAUAAUGAGACUACAUGUAGAAGGCGGUACUAGCA [Mat - Same State NG 2 - JL mod - D50] (Eterna round: R96, puzzle: Same State NG 2) | 0.0142 µM | 0.0335 µM | 0.0487 µM |  |  | 
AAACUAGGCGGUCCAACAUGAGGAUCACCCAUGUAAAAUUCAUAGGAUAUGCCUAUAGAAACAAGGCAGAAGGGUGAGACCGCA [Atsoorle] (Eterna round: R96, puzzle: Same State NG 3) | 0.0686 µM | 0.0937 µM | 0.134 µM |  |  | 

— the supplement of paper PMC9170038
